Target: FITC-labeled 45-mer peptide derived from the C-terminal region of IKKβ (FITC label (position not given))
Assay: fluorescence polarisation; fluorescence anisotropy binding assay with an FITC-labeled 45-mer peptide of IKKβ and bacterially expressed full-length NEMO proteins; conditions not told here (refs 13, 26)
Conditions: both partners purified

B1: 7XAla-NEMO (aa 1-419), bacterially expressed (natural protein)
chain: MNRHLWKSQLAEMVQPSGGPAADQDVLGEESPLGKPAMLHLPSEQGAPETLQRALEENQELRDAIRQSNQILRERAEELLHFQASQREEKEFLMAKFQEARKLVERLGLEKLDLKRQKEQALREVEHLKRAQQQMAEDKASVKAQVTSLLGELQESQSRLEAATKEAQALEGRARAASEQARQLESEREALQQQHSVQVDQLRMQGQSVEAALRMERQAASEEKRKLAQLQVAYHQLFQEYDNHIKSSVVGSERKRGMQLEDLKQQLQQAEEALVAKQEVIDKLKEEAEQHKIVMETVPVLKAQADIYKADFQAERQAREKLAEKKELLQEQLEQLQREYSKLKASAQESARIEDMRKRHVEVSQAPLPPAPAYLSSPLALPSQRRSPPEEPPDFCCPKCQYQAPDMDTLQIHVMECIE
Kd: 13 ± 2.9 nM
